Laboratory results reported in US12043670B2, “Anti-BCMA antibody-drug conjugates and methods of use” (Eisai R&D Management Co., Ltd., priority 2020, dated 2024).

Experiment: ThermoFluor thermostability (Tm)
Format: physicochemical
Conditions: Fab fragment; light chain clone paired with heavy chain AB200_R1_VH32

Molecule | Tm
AB200-R1H32-R2Vk39 (antibody) heavy: QVQLVQSGAEVKKPGSSVKVSCKASGGTFSNYWMHWVRQAPGQGLEWMGATYRSHSDTYYNQKFKSRVTITADKSTSTAYMELSSLRSEDTAVYYCARGAIYHGYDVIDNWGQGTLVTVSSASTKGPSVFPLAPSSKSTSGGTAALGCLVKDYFPEPVTVSWNSGALTSGVHTFPAVLQSSGLYSLSSVVTVPSSSLGTQTYICNVNHKPSNTKVDKKVEPKSC light: DIQMTQSPSSLSASVGDRVTITCRASQSISSYINWYQQKPGKAPKLLIYATSNIQSGVPSRFSGSGSGTDFTLTISSLQPEDFATYYCQQYRRLPWSFGQGTKLEIKRTVAAPSVFIFPPSDEQLKSGTASVVCLLNNFYPREAKVQWKVDNALQSGNSQESVTEQDSKDSTYSLSSTLTLSKADYEKHKVYACEVTHQGLSSPVTKSFNRGEC | 76.077 °C
AB200-R1H32-R2Vk43 (antibody) heavy: QVQLVQSGAEVKKPGSSVKVSCKASGGTFSNYWMHWVRQAPGQGLEWMGATYRSHSDTYYNQKFKSRVTITADKSTSTAYMELSSLRSEDTAVYYCARGAIYHGYDVIDNWGQGTLVTVSSASTKGPSVFPLAPSSKSTSGGTAALGCLVKDYFPEPVTVSWNSGALTSGVHTFPAVLQSSGLYSLSSVVTVPSSSLGTQTYICNVNHKPSNTKVDKKVEPKSC light: DIQMTQSPSSLSASVGDRVTITCRASQSISSYINWYQQKPGKAPKLLIYATSNIQSGVPSRFSGSGSGTDFTLTISSLQPEDFATYYCQQFRKIPWTFGQGTKLEIKRTVAAPSVFIFPPSDEQLKSGTASVVCLLNNFYPREAKVQWKVDNALQSGNSQESVTEQDSKDSTYSLSSTLTLSKADYEKHKVYACEVTHQGLSSPVTKSFNRGEC | 78.820 °C
AB200-R1H32-R2Vk4 (antibody) heavy: QVQLVQSGAEVKKPGSSVKVSCKASGGTFSNYWMHWVRQAPGQGLEWMGATYRSHSDTYYNQKFKSRVTITADKSTSTAYMELSSLRSEDTAVYYCARGAIYHGYDVIDNWGQGTLVTVSSASTKGPSVFPLAPSSKSTSGGTAALGCLVKDYFPEPVTVSWNSGALTSGVHTFPAVLQSSGLYSLSSVVTVPSSSLGTQTYICNVNHKPSNTKVDKKVEPKSC light: DIQMTQSPSSLSASVGDRVTITCRASQSISSYLNWYQQKPGKAPKLLIYATSNIQSGVPSRFSGSGSGTDFTLTISSLQPEDFATYYCQQFRKLPWSFGQGTKLEIKRTVAAPSVFIFPPSDEQLKSGTASVVCLLNNFYPREAKVQWKVDNALQSGNSQESVTEQDSKDSTYSLSSTLTLSKADYEKHKVYACEVTHQGLSSPVTKSFNRGEC | 79.449 °C
AB200-R1H32-R2Vk41 (antibody) heavy: QVQLVQSGAEVKKPGSSVKVSCKASGGTFSNYWMHWVRQAPGQGLEWMGATYRSHSDTYYNQKFKSRVTITADKSTSTAYMELSSLRSEDTAVYYCARGAIYHGYDVIDNWGQGTLVTVSSASTKGPSVFPLAPSSKSTSGGTAALGCLVKDYFPEPVTVSWNSGALTSGVHTFPAVLQSSGLYSLSSVVTVPSSSLGTQTYICNVNHKPSNTKVDKKVEPKSC light: DIQMTQSPSSLSASVGDRVTITCRASQSISSYINWYQQKPGKAPKLLIYATSNIQSGVPSRFSGSGSGTDFTLTISSLQPEDFATYYCQQFRRLPWTFGQGTKLEIKRTVAAPSVFIFPPSDEQLKSGTASVVCLLNNFYPREAKVQWKVDNALQSGNSQESVTEQDSKDSTYSLSSTLTLSKADYEKHKVYACEVTHQGLSSPVTKSFNRGEC | 79.593 °C
AB200-R1H32-R2Vk42 (antibody) heavy: QVQLVQSGAEVKKPGSSVKVSCKASGGTFSNYWMHWVRQAPGQGLEWMGATYRSHSDTYYNQKFKSRVTITADKSTSTAYMELSSLRSEDTAVYYCARGAIYHGYDVIDNWGQGTLVTVSSASTKGPSVFPLAPSSKSTSGGTAALGCLVKDYFPEPVTVSWNSGALTSGVHTFPAVLQSSGLYSLSSVVTVPSSSLGTQTYICNVNHKPSNTKVDKKVEPKSC light: DIQMTQSPSSLSASVGDRVTITCRASQSISSYINWYQQKPGKAPKLLIYATSNIQSGVPSRFSGSGSGTDFTLTISSLQPEDFATYYCQQYRKIPWSFGQGTKLEIKRTVAAPSVFIFPPSDEQLKSGTASVVCLLNNFYPREAKVQWKVDNALQSGNSQESVTEQDSKDSTYSLSSTLTLSKADYEKHKVYACEVTHQGLSSPVTKSFNRGEC | 75.027 °C
AB200-R1H32-R2Vk2 (antibody) heavy: QVQLVQSGAEVKKPGSSVKVSCKASGGTFSNYWMHWVRQAPGQGLEWMGATYRSHSDTYYNQKFKSRVTITADKSTSTAYMELSSLRSEDTAVYYCARGAIYHGYDVIDNWGQGTLVTVSSASTKGPSVFPLAPSSKSTSGGTAALGCLVKDYFPEPVTVSWNSGALTSGVHTFPAVLQSSGLYSLSSVVTVPSSSLGTQTYICNVNHKPSNTKVDKKVEPKSC light: DIQMTQSPSSLSASVGDRVTITCRASQSISSYINWYQQKPGKAPKLLIYAASSLQSGVPSRFSGSGSGTDFTLTISSLQPEDFATYYCQQFRKLPWSFGQGTKLEIKRTVAAPSVFIFPPSDEQLKSGTASVVCLLNNFYPREAKVQWKVDNALQSGNSQESVTEQDSKDSTYSLSSTLTLSKADYEKHKVYACEVTHQGLSSPVTKSFNRGEC | 79.715 °C
AB200-R1H32-R2Vk8 (antibody) heavy: QVQLVQSGAEVKKPGSSVKVSCKASGGTFSNYWMHWVRQAPGQGLEWMGATYRSHSDTYYNQKFKSRVTITADKSTSTAYMELSSLRSEDTAVYYCARGAIYHGYDVIDNWGQGTLVTVSSASTKGPSVFPLAPSSKSTSGGTAALGCLVKDYFPEPVTVSWNSGALTSGVHTFPAVLQSSGLYSLSSVVTVPSSSLGTQTYICNVNHKPSNTKVDKKVEPKSC light: DIQMTQSPSSLSASVGDRVTITCRASQSISSYINWYQQKPGKAPKLLIYATSNLQIGVPSRFSGSGSGTDFTLTISSLQPEDFATYYCQQFRKLPWSFGQGTKLEIKRTVAAPSVFIFPPSDEQLKSGTASVVCLLNNFYPREAKVQWKVDNALQSGNSQESVTEQDSKDSTYSLSSTLTLSKADYEKHKVYACEVTHQGLSSPVTKSFNRGEC | 80.002 °C
AB200-R1H32-R2Vk17 (antibody) heavy: QVQLVQSGAEVKKPGSSVKVSCKASGGTFSNYWMHWVRQAPGQGLEWMGATYRSHSDTYYNQKFKSRVTITADKSTSTAYMELSSLRSEDTAVYYCARGAIYHGYDVIDNWGQGTLVTVSSASTKGPSVFPLAPSSKSTSGGTAALGCLVKDYFPEPVTVSWNSGALTSGVHTFPAVLQSSGLYSLSSVVTVPSSSLGTQTYICNVNHKPSNTKVDKKVEPKSC light: DIQMTQSPSSLSASVGDRVTITCRASQSISSYINWYQQKPGKAPKLLIYAASSLQSGVPSRFSGSGSGTDFTLTISSLQPEDFATYYCQQYRKIPWSFGQGTKLEIKRTVAAPSVFIFPPSDEQLKSGTASVVCLLNNFYPREAKVQWKVDNALQSGNSQESVTEQDSKDSTYSLSSTLTLSKADYEKHKVYACEVTHQGLSSPVTKSFNRGEC | 76.415 °C
AB200-R1H32-R2Vk6 (antibody) heavy: QVQLVQSGAEVKKPGSSVKVSCKASGGTFSNYWMHWVRQAPGQGLEWMGATYRSHSDTYYNQKFKSRVTITADKSTSTAYMELSSLRSEDTAVYYCARGAIYHGYDVIDNWGQGTLVTVSSASTKGPSVFPLAPSSKSTSGGTAALGCLVKDYFPEPVTVSWNSGALTSGVHTFPAVLQSSGLYSLSSVVTVPSSSLGTQTYICNVNHKPSNTKVDKKVEPKSC light: DIQMTQSPSSLSASVGDRVTITCRASQSISSYINWYQQKPGKAPKLLIYATSNLQSGVPSRFSGSGSGTDFTLTISSLQPEDFATYYCQQFRKLPWSFGQGTKLEIKRTVAAPSVFIFPPSDEQLKSGTASVVCLLNNFYPREAKVQWKVDNALQSGNSQESVTEQDSKDSTYSLSSTLTLSKADYEKHKVYACEVTHQGLSSPVTKSFNRGEC | 79.773 °C
AB200-R1H32-R2Vk7 (antibody) heavy: QVQLVQSGAEVKKPGSSVKVSCKASGGTFSNYWMHWVRQAPGQGLEWMGATYRSHSDTYYNQKFKSRVTITADKSTSTAYMELSSLRSEDTAVYYCARGAIYHGYDVIDNWGQGTLVTVSSASTKGPSVFPLAPSSKSTSGGTAALGCLVKDYFPEPVTVSWNSGALTSGVHTFPAVLQSSGLYSLSSVVTVPSSSLGTQTYICNVNHKPSNTKVDKKVEPKSC light: DIQMTQSPSSLSASVGDRVTITCRASQSISSYINWYQQKPGKAPKLLIYATSNIQSGVPSRFSGSGSGTDFTLTISSLQPEDFATYYCQQFRKLPWSFGQGTKLEIKRTVAAPSVFIFPPSDEQLKSGTASVVCLLNNFYPREAKVQWKVDNALQSGNSQESVTEQDSKDSTYSLSSTLTLSKADYEKHKVYACEVTHQGLSSPVTKSFNRGEC | 79.001 °C
AB200-R1H32-R2Vk40 (antibody) heavy: QVQLVQSGAEVKKPGSSVKVSCKASGGTFSNYWMHWVRQAPGQGLEWMGATYRSHSDTYYNQKFKSRVTITADKSTSTAYMELSSLRSEDTAVYYCARGAIYHGYDVIDNWGQGTLVTVSSASTKGPSVFPLAPSSKSTSGGTAALGCLVKDYFPEPVTVSWNSGALTSGVHTFPAVLQSSGLYSLSSVVTVPSSSLGTQTYICNVNHKPSNTKVDKKVEPKSC light: DIQMTQSPSSLSASVGDRVTITCRASQSISSYINWYQQKPGKAPKLLIYATSNIQSGVPSRFSGSGSGTDFTLTISSLQPEDFATYYCQQYRRIPWTFGQGTKLEIKRTVAAPSVFIFPPSDEQLKSGTASVVCLLNNFYPREAKVQWKVDNALQSGNSQESVTEQDSKDSTYSLSSTLTLSKADYEKHKVYACEVTHQGLSSPVTKSFNRGEC | 76.379 °C
AB200-R1H32-R2Vk47 (antibody) heavy: QVQLVQSGAEVKKPGSSVKVSCKASGGTFSNYWMHWVRQAPGQGLEWMGATYRSHSDTYYNQKFKSRVTITADKSTSTAYMELSSLRSEDTAVYYCARGAIYHGYDVIDNWGQGTLVTVSSASTKGPSVFPLAPSSKSTSGGTAALGCLVKDYFPEPVTVSWNSGALTSGVHTFPAVLQSSGLYSLSSVVTVPSSSLGTQTYICNVNHKPSNTKVDKKVEPKSC light: DIQMTQSPSSLSASVGDRVTITCRASQSISSYINWYQQKPGKAPKLLIYATSNLQIGVPSRFSGSGSGTDFTLTISSLQPEDFATYYCQQYRKIPWSFGQGTKLEIKRTVAAPSVFIFPPSDEQLKSGTASVVCLLNNFYPREAKVQWKVDNALQSGNSQESVTEQDSKDSTYSLSSTLTLSKADYEKHKVYACEVTHQGLSSPVTKSFNRGEC | 75.976 °C
